The values that follow come from US20220041726A1 (Dana-Farber, published 2022).

The target of the experiment is T1, mouse PD-1 (mouse, UniProt Q02242 25-288).
T1 construct: also called 300-mouse PD-1 transfectants; 300-PD-1 transfectants
T1 sequence: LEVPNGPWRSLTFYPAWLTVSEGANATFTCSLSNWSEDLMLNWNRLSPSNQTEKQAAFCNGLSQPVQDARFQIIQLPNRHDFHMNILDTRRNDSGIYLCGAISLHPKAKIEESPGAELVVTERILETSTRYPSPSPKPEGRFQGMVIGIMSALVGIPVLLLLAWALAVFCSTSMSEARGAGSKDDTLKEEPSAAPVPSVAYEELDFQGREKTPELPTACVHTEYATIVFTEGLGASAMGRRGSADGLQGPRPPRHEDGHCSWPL
Nature of the experiment: hybridoma screened by flow cytometry on PD-1 transfectants; described in words only. For orientation: Flow cytometry measures light scatter and fluorescence of single cells or particles in a stream.

Description: The mice were immunized first with human PD-1-mIgG2a fusion protein (made in Freeman lab) in complete Freund's adjuvant and thereafter with alternating doses of human PD-1-mIgG2a fusion protein and mouse PD-1-Ig fusion protein in incomplete Freund's adjuvant. Mice were given a final boost with antigen and fused with SP2/0 myeloma cells. The PD-1 specific hybridomas were first identified when this fusion was screened by flow cytometry on 300-human PD-1 and 300-mouse PD-1 transfectants. Hybridomas were subcloned to stability. The mAbs were characterized for their capacity to bind to human and/or mouse PD-1 and for their affinity.

B1: 8H3 mouse anti-mouse PD-1 mAb (antibody, mouse IgG1, V domains shown)
VH: QVQLQQSGAELARPGASVKMSCKASGYTFTSYTMHWVKQRPGQGLEWIGYIHPSTGYIYYNQKFKDKATLTADKSSSTAYMQLSSLTSEDSAVYYCARKGTYLFDYWGQGTTLTVSS
VL: DIVMTQSQKFMSTSVGDRVSVTCKASQNVGTNVAWYQQKPGQSPKALIYSASYRYSGVPDRFTGSGSGTDFTLTISNMQSEDLAEYFCQQYNNYPLTFGAGTMLELK
notes: the light chain is kappa; also called 332.8H3; αPD-1 mAb (8H3)
Regarding B1, the binding result is on record as “binds”.
